Source: PMC3280215 (Science (New York, N.y.), 2011)

B1: Fab PGT 128 (Fab, V domains shown)
VH: QPQLQESGPTLVEASETLSLTCAVSGDSTAACNSFWGWVRQPPGKGLEWVGSLSHCASYWNRGWTYHNPSLKSRLTLALDTPKNLVFLKLNSVTAADTATYYCARFGGEVLRYTDWPKPAWVDLWGRGTLVTVSS
VL: QSALTQPPSASGSPGQSITISCTGTSNNFVSWYQQHAGKAPKLVIYDVNKRPSGVPDRFSGSKSGNTASLTVSGLQTDDEAVYYCGSLVGNWDVIFGGGTKLTVL
B2: PGT 127 IgG (antibody, V domains shown)
VH: QPQLQESGPGLVEASETLSLTCTVSGDSTGRCNYFWGWVRQPPGKGLEWIGSLSHCRSYYNTDWTYHNPSLKSRLTISLDTPKNQVFLRLTSVTAADTATYYCARFGGEVLVYRDWPKPAWVDLWGRGTLVTVSS
VL: QSALTQPPSASGSPGQSITISCTGTSNNFVSWYQQYPGKAPKLVIYEVNKRPSGVPDRFSGSKSGSTASLTVSGLQADDEGVYYCSSLVGNWDVIFGGGTKLTVL
B3: Fab PGT 127 (Fab, V domains shown)
VH: QPQLQESGPGLVEASETLSLTCTVSGDSTGRCNYFWGWVRQPPGKGLEWIGSLSHCRSYYNTDWTYHNPSLKSRLTISLDTPKNQVFLRLTSVTAADTATYYCARFGGEVLVYRDWPKPAWVDLWGRGTLVTVSS
VL: QSALTQPPSASGSPGQSITISCTGTSNNFVSWYQQYPGKAPKLVIYEVNKRPSGVPDRFSGSKSGSTASLTVSGLQADDEGVYYCSSLVGNWDVIFGGGTKLTVL
B4: PGT 128 IgG (antibody, V domains shown)
VH: QPQLQESGPTLVEASETLSLTCAVSGDSTAACNSFWGWVRQPPGKGLEWVGSLSHCASYWNRGWTYHNPSLKSRLTLALDTPKNLVFLKLNSVTAADTATYYCARFGGEVLRYTDWPKPAWVDLWGRGTLVTVSS
VL: QSALTQPPSASGSPGQSITISCTGTSNNFVSWYQQHAGKAPKLVIYDVNKRPSGVPDRFSGSKSGNTASLTVSGLQTDDEAVYYCGSLVGNWDVIFGGGTKLTVL
B5: PGT 128 VH H52aA (antibody, V domains shown)
VH: QPQLQESGPTLVEASETLSLTCAVSGDSTAACNSFWGWVRQPPGKGLEWVGSLSACASYWNRGWTYHNPSLKSRLTLALDTPKNLVFLKLNSVTAADTATYYCARFGGEVLRYTDWPKPAWVDLWGRGTLVTVSS
VL: QSALTQPPSASGSPGQSITISCTGTSNNFVSWYQQHAGKAPKLVIYDVNKRPSGVPDRFSGSKSGNTASLTVSGLQTDDEAVYYCGSLVGNWDVIFGGGTKLTVL
B6: PGT 128 (format not stated for the experiment) (antibody, V domains shown)
VH: QPQLQESGPTLVEASETLSLTCAVSGDSTAACNSFWGWVRQPPGKGLEWVGSLSHCASYWNRGWTYHNPSLKSRLTLALDTPKNLVFLKLNSVTAADTATYYCARFGGEVLRYTDWPKPAWVDLWGRGTLVTVSS
VL: QSALTQPPSASGSPGQSITISCTGTSNNFVSWYQQHAGKAPKLVIYDVNKRPSGVPDRFSGSKSGNTASLTVSGLQTDDEAVYYCGSLVGNWDVIFGGGTKLTVL
B7: PGT 127 (format not stated for the experiment) (antibody, V domains shown)
VH: QPQLQESGPGLVEASETLSLTCTVSGDSTGRCNYFWGWVRQPPGKGLEWIGSLSHCRSYYNTDWTYHNPSLKSRLTISLDTPKNQVFLRLTSVTAADTATYYCARFGGEVLVYRDWPKPAWVDLWGRGTLVTVSS
VL: QSALTQPPSASGSPGQSITISCTGTSNNFVSWYQQYPGKAPKLVIYEVNKRPSGVPDRFSGSKSGSTASLTVSGLQADDEGVYYCSSLVGNWDVIFGGGTKLTVL

What follows are binders tested against HIV-1 YU2 Env on the cell surface (HIV-1 YU2, UniProt P35961) (assay: flow cytometry on cells).

**Q.** Does B1 bind?
**A.** Result: binds

**Q.** Does B2 bind?
**A.** Result: binds

**Q.** Does B3 bind?
**A.** Result: binds

**Q.** Does B4 bind?
**A.** Result: binds

Each binder was assayed against gp120 (of the ELISA) (HIV-1, strain  for ELISA; …, UniProt Q75760) (assay: ELISA).

**Q.** Does B5 bind?
**A.** Result: binds

**Q.** Does B6 bind?
**A.** Result: binds

**Q.** Does B7 bind?
**A.** Result: binds
